Laboratory results published in article PMC2816692, “Structural and Biochemical Characterization of SrcA, a Multi-Cargo Type III Secretion Chaperone in Salmonella Required for Pathogenic Association with a Host” (PLoS Pathogens, 2010).

Biological target: the molecule itself
Assay: SEC; SrcA alone, 200 µl at 1.1 mg/ml; Superdex S200 10/300GL; 20 mM Tris pH 7.5, 200 mM KCl

B1: His-tagged SrcA (SsrB-regulated chaperone A, STM2138) (natural protein)
chain: MYSRADRLLRQFSLKLNTDSIVFDENRLCSFIIDNRYRILLTSTNSEYIMIYGFCGKPPDNNNLAFEFLNANLWFAENNGPHLCYDNNSQSLLLALNFSLNESSVEKLECEIEVVIRSMENLYHILQDKGITLDTDYT
notes: SrcA (STM2138), type III secretion chaperone of Salmonella enterica serovar Typhimurium; the srcA gene was amplified from chromosomal DNA; STM numbers count on the LT2 genome; Dimer by crystal structure and gel filtration; source: E. coli Rosetta (DE3), purified (nickel-chelating resin, Mono-Q anion exchange); not shown: His6, C-terminal, kept
In the case of B1, the “stoichiometry N” value is reported as 2.
